Measured values reported in patent US20240101708A1 (Genentech, published 2024).
Substitutions are numbered along the chain they refer to.

B1: RNF43-13 (antibody, V domains shown)
VH: QSLEESGGGLVKPGGTLTLTCKASGIDFSGYYYMCWVRQAPGKGLEWIACIYTTSGSAWYASWAKGRFTISITTSLNTVTLQMTSLTATDTATYFCVRYANYGGYNYPEFGVLWGPGTLVTVSS
VL: AYDMTQTPASVEVAVGATVTIKCQASEDIYNLLAWYQQKPGQPPKLLIYRASKLASGVPSRFSGSGSGTEFTLTISSVQCDDAATYYCQQGYSISNVENPFGGGTEVVVK
notes: Rabbit clone; VH/VL only
B2: RNF43-117 (antibody, V domains shown)
VH: QVSLKESGPGMLQPSQTLSLTCTFSEFSLSTYGLGVGWIRQPSGKGLEWLANIWWDDDKYYNPSLKNRLTISKDTSNNQAFLKITNVDTADTATYYCARIDGRWHYFDYWGQGDRVIVSS
VL: DIVLTQTPSILSATIGQSVSISCRSTQSLLDSDGNTYLYWFLQRPGQSPQRLIYLVSNLGSGVPNRFSGSGSGTDFTLKISGVEAEDLGFYYCMQGAHTPLTFGSGTKLEIK
notes: Rat clone; VH/VL only
B3: RNF43-201 (antibody, V domains shown)
VH: QVTLKEYGPGILQPSQTLSLTCTFSGFSLRTYGMGVGWIRQPSGKGLEWLTNIWWDDDKYYNPSLKNRLTISKDTSNNQAFLKITNVDTEDSATYYCARIDGTFNYFDYWGQGVMVTVSS
VL: B2 VL with I2V, I10R, T26S, F67V, F90I, M94L, G96A, A97T, T99A
notes: Rat clone; VH/VL only
B4: RNF43-17 (antibody, V domains shown)
V domain 1: QSVEESGGRLVTPGTPLTLTCTGSGFSLSNYAMGWVRQAPGKGLEYIGIIYASGSTWYASWAKGRFTISKTSTTVDLKITSPATEDTATYFCCRDATTTYDRLDLWGQGTLITVSS
V domain 2: AFELTQTPSSVEAAVGGTVTIKCQASQSISKWLAWYQQKPGQPPKLLIYRASTLPSGVPSRFKGSGSGTEFTLTISGVECADAATYYCQQGYSVTNLDEAFGGGTEVVVK
notes: Rabbit clone; VH/VL only
B5: RNF43-69 (antibody, V domains shown)
VH: EVQLVESGGGLVQPGRSLKLSCAASGFTFSDYYMAWVRQAPKKGLEWVASITYEGSSTYYGDSVKGRFTISRDNAKSTLYLQMNSLRSEDTATFYCARHLDYGYDYAWYFDFWGPGTMVTVSS
VL: DIVLTQSPTTLSVTPGETVSLSCRTSHSIGTNLHWYQQKTNESPRLLIKYASQSISGIPSRFSASGSGTDFTLNINNVEFDDVSSYFCQQTQSWPLTFGSGTKLEIK
notes: Rat clone; VH/VL only
B6: RNF43-75 (antibody, V domains shown)
VH: B5 VH with Y32H, Y109S
VL: B5 VL with T9I, T10I, K49N, D81E, S84A, F87Y, S93R
notes: Rat clone; VH/VL only
B7: RNF43-152 (antibody, V domains shown)
VH: B3 VH with Y7S, F27S, R30S, T51A, A80S, T85A, E90A, S92T, F104Y
VL: DVVLTQTPSRLSATIGQSVSISCRSSQSLLDSYGNTYLSWFLQRPGQSPQRLIFLVSNLGSGVPNRVSGSGSGTDFTLKISGVEAEDLGVYYCMQTTHDPLTFGSGTKLEIK
notes: Rat clone; VH/VL only
B8: RNF43-9 (antibody, V domains shown)
VH: QSLEESGGDLVQPEGSLTLTCTASGFSFSSSCYMCWVRQAPGKGLEWIACINTGSSGSTYYASWAKGRFTISKTSSTTVTLQMTILTAADTATYFCARGYAGYTGYGQFNLWGPGTLVTVSS
VL: QIVMTQTPASVEAAVGGTVTIKCQASQSISNYLAWYQQKPGQRPKLLIYDASKLASGVPSRFKGSGSGTQFTLTISGVECADAATYYCQQGYTMNNVDNAFGGGTEVVVK
notes: Rabbit clone; VH/VL only
B9: RNF43-22 (antibody, V domains shown)
VH: QEQLEESGGDLVKPGASLTLTCTASGFSVSNSYYMCWVRQAPGKGLEWIACINTGSSGSTYYASWAKGRFTISKTSSTTVTLQMTTLTAADTATYFCARGYAGYAGYGQFNLWGPGTLVTVSS
VL: B8 VL with Q1A, I2Y, V3D, A13V, N31S, L46V, A51V, T93S, N95S, A100T
notes: Rabbit clone; VH/VL only
B10: RNF43-6 (antibody, V domains shown)
VH: QSLEESGGRLVTPGTPLTLTCTVSGFSLSAFGMNWVRQAPGKGLEWIGYISAGGSAVYPNWAEGRFTISKASTTVTLKMTSLTTEDTATYFCVRGGYVGSTNSLWGPGTLVTVSS
VL: AAVLTQTPSPVSAAVGGTVSISCQSSKSVHNNNWLAWYQQKPGQPPKLLIYGASTLASGVPSRFKGSGSGTQFTLTISDVQCDDAATYYCSGGYSSIIDNGFGGGTDVVVE
notes: Rabbit clone; VH/VL only
B11: RNF43-129 (antibody, V domains shown)
VH: EVQLVESGGGLVQPGRSMKLSCAASGFTFSNYDMAWVRQAPKKGLEWVASITYDVSSTYYRDSVKGRFTISRDNAKSTLYLQMDSLRSEDTATYYCTTLDRAGYYYDGYGFYWFANWGQGTLVTVSS
VL: DIQMTQSPSSMSVSLGDTVTITCRASQDVKIYVNWFQQKPGKSPRQMIYRATNLADGVSSRFSGSRSGSDYLFTISSLESEDVADYHCLQYDEYPPTFGSGTKVEIK
notes: Rat clone; VH/VL only
B12: RNF43-15 (antibody, V domains shown)
VH: QEQLEESGGDLVKPGASLTLTCTASRFSFSNDDVICWVRQAPGKGLEWIGCIATINGNTAYATWAKGRFTSSKTSSTTVTLQMTRLTAADTATYFCARWDTGSEHVTLWGPGTLVTVSS
VL: AYDMTQTPASVEVAVGGTVTIKCQASQSISSYLAWYQQKPGQPPKPLIYEASKLASGVPSRFSGSGSGTQFTLTISGVQCADAATYYCQQGASWSNVDNVFGGGTEVVVK
notes: Rabbit clone; VH/VL only
B13: RNF43-107 (antibody, V domains shown)
VH: EVQPVESGGGLVQPGRSLKLSCPASGFTFSNYDMAWVRQAPTKGLEWVASISPSGGRTYYRDSVKGRFTISRDNSKSTLYLQMDSLRSEDTATFYCATHRYYSYFDFWGQGVMVTVSS
VL: DIQMTQSPASLSASLGETISIDCRTSEDIYNNLAWYQQKSGRSPQLLISATNRLQDGVPSRFSGSGSGTQYSLKISGMQPEDEGVYFCLQGSKYPYTFGTGTKLELK
notes: Rat clone; VH/VL only
B14: RNF43-23 (antibody, V domains shown)
VH: QEQVVESGGGLVQPEGSLTLTCKGSGFDFSGNVLCWVRQAPGKGLEWIGCIATGIGSTAYASWAKGRFTITRGTSLNTVDLKMTSLTAADTATYFCARYVSGSEYYNFWGPGTLVTVSS
VL: AYDMTQTPASVEVAVGGTVTIKCQASQSISSFLAWYQQKPGQPPMLLIYKASTLASGVPSRFKGSGSGTQFTLTISGVECADAATYYCQQGYSWNGVDNTFGGGTEVVVK
notes: Rabbit clone; VH/VL only
B15: RNF43-35 (antibody, V domains shown)
VH: QVQLKESGPGLVQPSQTLSLTCTVSGFSLTTYSVHWVRQHSGKNLEWMGRMWTAGDTSYNSAFTSRLNIFRDTSKSQVFLKMNSLQTEDTGTYYCARSSYTSGYPFDSWGQGVMVTVSS
VL: DTVLTQSPALAVSPGERVTISCRASESVSKLMHWYQQRPGQQPQLLIYLTSHLASGVPARFSGSGSGTDFTLTIDPVEADDTATYYCQQSRNDPTFGAGTKLELK
notes: Rat clone; VH/VL only
B16: RNF43-90 (antibody, V domains shown)
VH: QVQLKESGPGLVQPSQTLSLTCTVSGFSLTSYSVHWVRQHSGNRLEWMGRMWSAGDTSFNSAFTSRLNITRDTSKSQVFLKMNSLQTEDTGTYYCVRSFYNAGYPFDYWGQGVMVTVSS
VL: B15 VL with E26D, S29I, H33N, R38K, Q42R, Q44K, T50A, A79T, A98P
notes: Rat clone; VH/VL only
B17: RNF43-33 (antibody, V domains shown)
VH: QEQLKESGPGLVQPSQTLSLTCTVSGFSLTSYNVHWVRQPPRKGLEWMGRMRYNGDTSYNSALKSRLSISRDTSKNQVFLKMNSLQTDDTGTYYCARGPLWDYWGQGVMVTVSS
VL: DVVLTQTPPTLSATIGQSVSVSCRSSQSLLHSNGNTYLNWLLQRPGQPPQLLIYLVSRLESGVPNRFSGSGSGTDFTLKISGVEAEDLGVYYCVQSTHAPYTFGAGTKLELK
notes: Rat clone; VH/VL only
B18: RNF43-21 (antibody, V domains shown)
VH: QSLEESGGDLVKPGASLTLTCTASGFSFSSSYYMCWVRQAPGKGLEWIACIYAGSSGSTYYASWAKGRFTVSKTSSTTVTLQMTSLTAADTATYFCARYTYGSGSDSYFNLWGPGTLVTVSS
VL: AYDMTQTPASVEAAVGGTVTIQCQASQSIGSYLAWYQQKPGQPPKLLIYRASTLSSGVPSRFKGSGSGTQFTLTISDLECADAATYYCQQGYSITNLDNGFGGGTEVVVK
notes: Rabbit clone; VH/VL only
B19: RNF43-106 (antibody, V domains shown)
VH: QIQLGQSGPELTKPGESVKISCKASGYTFSDYPIHWVKQAPGKGLKWMGWINTYTGKPTFADDFKGRFVFSLEASASTANLQISNLKNEDTATYFCALGPISTVFYAMDAWGQGTSVTVSS
VL: DIQMTQSPSFLSASVGDRVTINCKASQNINKYLNWYQQKLGEAPKRLIYNTNNLQTGIPSRFSGSGSGTDYTLTISSLQPEDFATYFCLQHNSFPYTFGAGTKLELK
notes: Rat clone; VH/VL only
B20: RNF43-210 (antibody, V domains shown)
VH: QIQLVQSGPELKKPEESVKISCKASGYIFTDYLIHWVKQAPGEGLKWMGWINTYTGKPTYADDFKGRFVFSLEASASTAILQISNLKNEDTATYFCALGPITTVVYVMDAWGQGTSVTVSS
VL: B19 VL with G57D, T69A, S76N
notes: Rat clone; VH/VL only
B21: RNF43-123 (antibody, V domains shown)
VH: B19 VH with G5V, T12K, S30T, I34M, F60Y, S77N, E89D, M108V
VL: B19 VL with L40V, I48M, A100P, K103E
notes: Rat clone; VH/VL only
B22: RNF43-14 (antibody, V domains shown)
VH: QSVEESGGRLVTPGTPLTLTCTVSGIDLSSYAMGWVRQAPGKGLEYIGFIYASGSTYYASWAKGRFTISKTSTTVDLKITSPTTEDTATYFCARDSSETINYFNIWGPGTLVTVSL
VL: NIVMTQTPSPVSGAVGGTVTIKCQASQSISNWLAWYQQKPGQPPKVLIYRASTLASGVSSRFKGSGSGTEFTLTISDLECADAATYYCQQGYYISYLDNAFGGGTEVVVK
notes: Rabbit clone; VH/VL only

Molecular target: T1, recombinant human RNF43 extracellular domain (human, UniProt Q68DV7 24-197)
T1 construct: extracellular domain; also called huRNF43; human RNF43 ECD
T1 sequence (looked up): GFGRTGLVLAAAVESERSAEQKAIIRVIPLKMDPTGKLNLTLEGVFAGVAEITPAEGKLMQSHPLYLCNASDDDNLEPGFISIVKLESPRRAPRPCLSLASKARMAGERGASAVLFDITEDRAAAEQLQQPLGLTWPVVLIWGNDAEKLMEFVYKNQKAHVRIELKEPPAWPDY
Assay: SPR Biacore 8K; antibody captured on Protein A; RNF43 ECD analyte; 25 C
Protocol: Antibodies were screened for binding to recombinant human RNF43 and ZNRF3 ECDs using a Biacore® 8 k instrument (GE Life Sciences). Briefly, antibodies diluted to 1 μg/ml in 1×HBSP buffer (Cytiva, BR100368) were captured on a Sensor Chip Protein A (GE Life Sciences) using a flow rate of 10 μl/minute and a contact time of 60 seconds. Binding of recombinant human RNF43 and ZNRF3 extracellular domain to the captured antibodies was analyzed at 25° C. using a single cycle kinetics method with a flow rate of 30 μl/minute, a contact time of 180 seconds and a dissociation time of 600 seconds. The concentration of recombinant human RNF43 and ZNRF3 extracellular domain in the single cycle kinetics were 0, 0.8, 4, 20, and 100 nM. Between cycles, the chip was regenerated using 10 mM Glycine HCl pH 1.5 injected for 30 seconds at 30 μl/minute. Data were evaluated using Biacore 8K Evaluation software (GE Life Sciences). Kinetic constants were obtained using a 1:1 binding model with the parameter RI set to zero. Cell surface ligase antibodies with sub-nanomolar affinities may provide advantages in certain instances, for example, in the degradation efficiency which is correlated with the durability of the ternary complex as shown in FIG. 5D.

Binder	Kd [nM]
B1	99.6
B2	19.8
B3	9.9
B4	6.7
B5	16.8
B6	4.65
B7	17.8
B8	1.8
B9	0.5
B10	10.3
B11	1.17
B12	8
B13	0.341
B14	85
B15	0.07
B16	0.29
B17	63
B18	10.3
B19	15.6
B20	13.4
B21	13.4
B22	0.8
